± gives the uncertainty stated by the source.
B1: WW domain-binding protein 4, residues 8 to 43; numbered along this chain, O75554 (parent)
chain: QPKKFCDYCKCWIADNRPSVEFHERGKNHKENVAKR

Variants of: B1
Test: abundance fitness (aPCA) (normalised: wild type 0, dead -1); higher = more abundant; growth selection in yeast, the domain comes from the species named
Conditions: Homo sapiens

Row | Variant | abundance fitness
1 | QPEKFCDYCKCWIADNRPSVEFHERGKNHKENVAKR [K3E] | 0.174 ± 0.073
2 | QPYKFCDYCKCWIADNRPSVEFHERGKNHKENVAKR [K3Y] | 0.045 ± 0.14
3 | QPTKFCDYCKCWIADNRPSVEFHERGKNHKENVAKR [K3T] | -0.275 ± 0.11
4 | QPRKFCDYCKCWIADNRPSVEFHERGKNHKENVAKR [K3R] | 0.013 ± 0.062
5 | QPGKFCDYCKCWIADNRPSVEFHERGKNHKENVAKR [K3G] | -0.051 ± 0.058
6 | QPWKFCDYCKCWIADNRPSVEFHERGKNHKENVAKR [K3W] | -0.997 ± 0.1
7 | QPHKFCDYCKCWIADNRPSVEFHERGKNHKENVAKR [K3H] | -0.569 ± 0.19
8 | QPQKFCDYCKCWIADNRPSVEFHERGKNHKENVAKR [K3Q] | 0.082 ± 0.08
9 | QPAKFCDYCKCWIADNRPSVEFHERGKNHKENVAKR [K3A] | -0.194 ± 0.062
10 | QPCKFCDYCKCWIADNRPSVEFHERGKNHKENVAKR [K3C] | -1.59 ± 0.17
11 | QPFKFCDYCKCWIADNRPSVEFHERGKNHKENVAKR [K3F] | -0.881 ± 0.29
12 | QPVKFCDYCKCWIADNRPSVEFHERGKNHKENVAKR [K3V] | -0.279 ± 0.065
13 | QPMKFCDYCKCWIADNRPSVEFHERGKNHKENVAKR [K3M] | 0.074 ± 0.087
14 | QPDKFCDYCKCWIADNRPSVEFHERGKNHKENVAKR [K3D] | -0.025 ± 0.12
15 | QPSKFCDYCKCWIADNRPSVEFHERGKNHKENVAKR [K3S] | -0.102 ± 0.07
16 | QPLKFCDYCKCWIADNRPSVEFHERGKNHKENVAKR [K3L] | -0.193 ± 0.066
17 | QPKKFCDYVKCWIADNRPSVEFHERGKNHKENVAKR [C9V] | -1.28 ± 0.14
18 | QPKKFCDYQKCWIADNRPSVEFHERGKNHKENVAKR [C9Q] | -0.701 ± 0.12
19 | QPKKFCDYDKCWIADNRPSVEFHERGKNHKENVAKR [C9D] | -0.541 ± 0.11
20 | QPKKFCDYTKCWIADNRPSVEFHERGKNHKENVAKR [C9T] | -0.635 ± 0.16
21 | QPKKFCDYAKCWIADNRPSVEFHERGKNHKENVAKR [C9A] | -0.787 ± 0.073
22 | QPKKFCDYGKCWIADNRPSVEFHERGKNHKENVAKR [C9G] | -0.525 ± 0.061
23 | QPKKFCDYKKCWIADNRPSVEFHERGKNHKENVAKR [C9K] | -0.983 ± 0.34

Row | Variant | abundance fitness
24 | QPKKFCDYSKCWIADNRPSVEFHERGKNHKENVAKR [C9S] | -0.116 ± 0.13
25 | QPKKFCDYMKCWIADNRPSVEFHERGKNHKENVAKR [C9M] | -1.23 ± 0.34
26 | QPKKFCDYLKCWIADNRPSVEFHERGKNHKENVAKR [C9L] | -1.13 ± 0.14
27 | QPKKFCDYWKCWIADNRPSVEFHERGKNHKENVAKR [C9W] | -1.2 ± 0.12
28 | QPKKFCDYEKCWIADNRPSVEFHERGKNHKENVAKR [C9E] | -0.603 ± 0.098
29 | QPKKFCEYCKCWIADNRPSVEFHERGKNHKENVAKR [D7E] | 0.007 ± 0.11
30 | QPKKFCLYCKCWIADNRPSVEFHERGKNHKENVAKR [D7L] | -0.209 ± 0.12
31 | QPKKFCWYCKCWIADNRPSVEFHERGKNHKENVAKR [D7W] | -0.649 ± 0.12
32 | QPKKFCMYCKCWIADNRPSVEFHERGKNHKENVAKR [D7M] | -0.241 ± 0.37
33 | QPKKFCKYCKCWIADNRPSVEFHERGKNHKENVAKR [D7K] | -0.272 ± 0.16
34 | QPKKFCQYCKCWIADNRPSVEFHERGKNHKENVAKR [D7Q] | -0.113 ± 0.097
35 | QPKKFCTYCKCWIADNRPSVEFHERGKNHKENVAKR [D7T] | 0.154 ± 0.13
36 | QPKKFCPYCKCWIADNRPSVEFHERGKNHKENVAKR [D7P] | -0.529 ± 0.2
37 | QPKKFCSYCKCWIADNRPSVEFHERGKNHKENVAKR [D7S] | -0.131 ± 0.23
38 | QPKKFCYYCKCWIADNRPSVEFHERGKNHKENVAKR [D7Y] | -0.286 ± 0.33
39 | QPKKFCVYCKCWIADNRPSVEFHERGKNHKENVAKR [D7V] | -0.6 ± 0.1
40 | QPKKFCGYCKCWIADNRPSVEFHERGKNHKENVAKR [D7G] | -0.173 ± 0.069
41 | QPKGFCDYCKCWIADNRPSVEFHERGKNHKENVAKR [K4G] | -0.497 ± 0.07
42 | QPKTFCDYCKCWIADNRPSVEFHERGKNHKENVAKR [K4T] | -0.022 ± 0.18
43 | QPKMFCDYCKCWIADNRPSVEFHERGKNHKENVAKR [K4M] | 0.13 ± 0.082
44 | QPKVFCDYCKCWIADNRPSVEFHERGKNHKENVAKR [K4V] | -0.507 ± 0.07
45 | QPKWFCDYCKCWIADNRPSVEFHERGKNHKENVAKR [K4W] | -1.03 ± 0.075
46 | QPKDFCDYCKCWIADNRPSVEFHERGKNHKENVAKR [K4D] | -0.573 ± 0.15

Row | Variant | abundance fitness
47 | QPKAFCDYCKCWIADNRPSVEFHERGKNHKENVAKR [K4A] | -0.291 ± 0.063
48 | QPKNFCDYCKCWIADNRPSVEFHERGKNHKENVAKR [K4N] | -0.226 ± 0.1
49 | QPKEFCDYCKCWIADNRPSVEFHERGKNHKENVAKR [K4E] | -0.355 ± 0.08
50 | QPKRFCDYCKCWIADNRPSVEFHERGKNHKENVAKR [K4R] | -0.374 ± 0.066
51 | QPKSFCDYCKCWIADNRPSVEFHERGKNHKENVAKR [K4S] | -0.212 ± 0.092
52 | QPKFFCDYCKCWIADNRPSVEFHERGKNHKENVAKR [K4F] | -0.177 ± 0.16
53 | QPKCFCDYCKCWIADNRPSVEFHERGKNHKENVAKR [K4C] | -0.453 ± 0.09
54 | QPKLFCDYCKCWIADNRPSVEFHERGKNHKENVAKR [K4L] | -0.366 ± 0.072
55 | QPKQFCDYCKCWIADNRPSVEFHERGKNHKENVAKR [K4Q] | -0.245 ± 0.085
56 | QPKKFGDYCKCWIADNRPSVEFHERGKNHKENVAKR [C6G] | -1.07 ± 0.062
57 | QPKKFVDYCKCWIADNRPSVEFHERGKNHKENVAKR [C6V] | -0.756 ± 0.083
58 | QPKKFEDYCKCWIADNRPSVEFHERGKNHKENVAKR [C6E] | -0.546 ± 0.079
59 | QPKKFMDYCKCWIADNRPSVEFHERGKNHKENVAKR [C6M] | -0.654 ± 0.09
60 | QPKKFNDYCKCWIADNRPSVEFHERGKNHKENVAKR [C6N] | -0.919 ± 0.33
61 | QPKKFADYCKCWIADNRPSVEFHERGKNHKENVAKR [C6A] | -0.471 ± 0.07
62 | QPKKFPDYCKCWIADNRPSVEFHERGKNHKENVAKR [C6P] | -0.466 ± 0.084
63 | QPKKFRDYCKCWIADNRPSVEFHERGKNHKENVAKR [C6R] | -0.691 ± 0.071
64 | QPKKFSDYCKCWIADNRPSVEFHERGKNHKENVAKR [C6S] | -0.615 ± 0.077
65 | QPKKFFDYCKCWIADNRPSVEFHERGKNHKENVAKR [C6F] | -0.653 ± 0.17
66 | QPKKFKDYCKCWIADNRPSVEFHERGKNHKENVAKR [C6K] | -0.216 ± 0.26
67 | QPKKFLDYCKCWIADNRPSVEFHERGKNHKENVAKR [C6L] | -0.862 ± 0.098
68 | QPKKFTDYCKCWIADNRPSVEFHERGKNHKENVAKR [C6T] | -0.521 ± 0.085
69 | QPKKFWDYCKCWIADNRPSVEFHERGKNHKENVAKR [C6W] | -1 ± 0.13
